Measured values taken from patent US6562613.

Tested on: series of eight synthetic peptides with sequences found in and around the C-proteinase cleavage sites of -Ala-Asp- and -Gly-Asp- in the four pro-alpha chains of types I, II and III procollagen

Question: How did the “cleavage of synthetic peptides, HPLC followed by laser desorption mass spectrometry” value turn out when “C-proteinase (enzyme used on the synthetic peptide substrates; source not stated)” was run?
Answer: The value was “four of the eight propeptides were specifically and completely cleaved by the enzyme”.
